According to US20230416351A1 (Novartis, published 2023):

Biological target: T1, recombinant VEGF165 protein (human, UniProt P15692 27-191)
T1 construct: mature; the 165-residue isoform is meant; also called VEGF-A
Experiment: SPR in vitro binding, drug and recombinant VEGF165, 37 C
Protocol: Drug-specific parameters used are defined based upon which drug(s) is included in the specific simulation. These values are shown in Table 2 for brolucizumab, aflibercept, and ranibizumab. The drug:VEGF binding parameter values (the dissociation rate constant “koff” and the equilibrium binding constant “Kd”) were defined on the basis of a surface plasmon resonance (SPR) in vitro binding experiment with drug and recombinant VEGF165 protein at 37° C. according to manufacturer's instructions. The hydrodynamic radius values for drug (“rh_R”) and associated drug:VEGF complexes (“rh_VR” and “rh_RVR”) were sourced from literature reports (Caruso et. al., Mol. Pharmaceutics 2020, 17, 695-709) or from computational structure models of drug and VEGF. This includes estimated hydrodynamic radius values for the heterogenous complexes consisting of one VEGF dimer and two different VEGF antagonists (“rh_ROVR”). Drug-independent parameters used are used to describe VEGF production and distribution within and out of the eye, as well as general biophysical properties of the eye such as permeability coefficients for the Inner Limiting Membrane (ILM) and Retinal Pigment Epithelium (RPE) and the clearance rate from the aqueous chamber.

T1 sequence (P15692 other isoform, or with tags, fused parts or gaps): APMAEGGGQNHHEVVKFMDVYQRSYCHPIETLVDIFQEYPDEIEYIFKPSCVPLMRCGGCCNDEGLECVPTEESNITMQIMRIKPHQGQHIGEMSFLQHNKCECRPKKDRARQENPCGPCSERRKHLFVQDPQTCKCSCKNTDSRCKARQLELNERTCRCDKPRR

B1: brolucizumab (scFv)
scFv: MEIVMTQSPSTLSASVGDRVIITCQASEIIHSWLAWYQQKPGKAPKLLIYLASTLASGVPSRFSGSGSGAEFTLTISSLQPDDFATYYCQNVYLASTNGANFGQGTKLTVLGGGGGSGGGGSGGGGSGGGGSEVQLVESGGGLVQPGGSLRLSCTASGFSLTDYYYMTWVRQAPGKGLEWVGFIDPDDDPYYATWAKGRFTISRDNSKNTLYLQMNSLRAEDTAVYYCAGGDHNSGWGLDIWGQGTLVTVSS
notes: Humanized single-chain Fv (VL-linker-VH), ~26 kDa; also called Beovu; VEGF antagonist A
Work on B1 yielded a Kd of 0.101 nM.
